Test results reported in CN116761824A (SHANGHAI YAOMING HELIAN BIOTECHNOLOGY CO LTD, dated 2023).

Biological target: T1, 人Trop2 (human, UniProt P09758 27-323)
T1 construct: whole, on cells; also called 肿瘤相关钙信号转导器2; TACSTD2
T1 sequence (looked up): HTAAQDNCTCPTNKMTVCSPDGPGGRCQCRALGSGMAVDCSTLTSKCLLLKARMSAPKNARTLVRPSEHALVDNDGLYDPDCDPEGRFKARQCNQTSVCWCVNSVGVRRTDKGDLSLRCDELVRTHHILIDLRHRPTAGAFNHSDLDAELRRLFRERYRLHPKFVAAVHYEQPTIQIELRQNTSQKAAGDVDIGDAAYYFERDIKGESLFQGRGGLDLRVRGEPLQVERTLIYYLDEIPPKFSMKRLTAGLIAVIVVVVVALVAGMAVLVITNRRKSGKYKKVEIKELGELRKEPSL
Assay: FACS on tumour cells (MDA-MB-468, HCC827, BxPC-3), Alexa647 goat anti-human IgG Fc detection

B1: 抗-Trop2抗体886-36 (antibody, V domains shown)
VH: QVQLQQSGSELKKPGASVKVSCKASGYTFTNYGMNWVKQAPGQGLKWMGWINTYTGEPTYTDDFKGRFAFSLDTSVSTAYLQISSLKADDTAVYFCARGGFGSSYWYFDVWGQGSLVTVSS
VL: DIQLTQSPSSLSASVGDRVSITCKASQDVSIAVAWYQQKPGKAPKLLIYSASYRYTGVPDRFSGSGSGTDFTLTISSLQPEDFAVYYCQQHYITPLTFGAGTKVEIKR
notes: also called WBP886-36
binding result: binds

B2: 886-36-MMAE (antibody, V domains shown)
VH: QVQLQQSGSELKKPGASVKVSCKASGYTFTNYGMNWVKQAPGQGLKWMGWINTYTGEPTYTDDFKGRFAFSLDTSVSTAYLQISSLKADDTAVYFCARGGFGSSYWYFDVWGQGSLVTVSS
VL: DIQLTQSPSSLSASVGDRVSITCKASQDVSIAVAWYQQKPGKAPKLLIYSASYRYTGVPDRFSGSGSGTDFTLTISSLQPEDFAVYYCQQHYITPLTFGAGTKVEIKR
modifications: MC-vc-PAB-MMAE on cysteines freed by partial TCEP reduction of interchain disulfides; mostly in the Fab domain; mainly DAR4 (82.3%)
binding result: binds
